Data: patent publication US20140271457A1 (AbbVie / Abbott, published 2014)
Residue numbers refer to the chain shown, from its start.

Biological target: Recombinant Human TNF-α/TNFSF1A (human, UniProt P01375 77-233)
Assay: cell-based or functional assay

Sequence of Recombinant Human TNF-α/TNFSF1A (P01375 77-233 limits assumed): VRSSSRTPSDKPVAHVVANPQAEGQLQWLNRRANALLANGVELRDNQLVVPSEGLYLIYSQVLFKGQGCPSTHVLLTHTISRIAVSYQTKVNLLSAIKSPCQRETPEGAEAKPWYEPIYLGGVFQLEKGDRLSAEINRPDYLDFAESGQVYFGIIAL

B1: DVD2689 (bispecific antibody, IgG1)
VH: EVTLRESGPGLVKPTQTLTLTCTLYGFSLSTSDMGVDWIRQPPGKGLEWLAHIWWDDVKRYNPALKSRLTISKDTSKNQVVLKLTSVDPVDTATYYCARTVSSGYIYYAMDYWGQGTLVTVSSASTKGPEVQLVESGGGLVQPGGSLRLSCAASGFTFSNYGVTWVRQAPGKGLEWVSMIWADGSTHYASSVKGRFTISRDNSKNTLYLQMNSLRAEDTAVYYCAREWQHGPVAYWGQGTLVTVSS
VL: DIQMTQSPSSLSASVGDRVTISCRASQDIRNYLNWYQQKPGKAPKLLIFYTSKLHSGVPSRFSGSGSGTDYTLTISSLQPEDIATYYCQQGLTPPLTFGGGTKVEIKRTVAAPDIQMTQSPSSLSASVGDRVTITCRASQLVSSAVAWYQQKPGKAPKLLIYWASARHTGVPSRFSGSGSGTDFTLTISSLQPEDFATYYCQQHYKTPFTFGQGTKLEIKR
C-Terminal VD huTNFα Neutralization Assay IC50: 0.076 nM

B2: DVD2692 (bispecific antibody, IgG1)
VH: EVTLRESGPGLVKPTQTLTLTCTLYGFSLSTSDMGVDWIRQPPGKGLEWLAHIWWDDVKRYNPALKSRLTISKDTSKNQVVLKLTSVDPVDTATYYCARTVSSGYIYYAMDYWGQGTLVTVSSASTKGPSVFPLAPEVQLVESGGGLVQPGGSLRLSCAASGFTFSNYGVTWVRQAPGKGLEWVSMIWADGSTHYASSVKGRFTISRDNSKNTLYLQMNSLRAEDTAVYYCAREWQHGPVAYWGQGTLVTVSS
VL: B1 VL
C-Terminal VD huTNFα Neutralization Assay IC50: 0.04 nM

B3: DVD2739 (bispecific antibody, IgG1)
VH: B1 VH with T164E, M179G, S190D, S191T, G194S
VL: B1 VL with R137K, A166T, R167L, K206R
C-Terminal VD huTNFα Neutralization Assay IC50: 0.517 nM

B4: DVD2688 (bispecific antibody, IgG1)
VH: EVTLRESGPGLVKPTQTLTLTCTLYGFSLSTSDMGVDWIRQPPGKGLEWLAHIWWDDVKRYNPALKSRLTISKDTSKNQVVLKLTSVDPVDTATYYCARTVSSGYIYYAMDYWGQGTLVTVSSGGGGSGGGGSEVQLVESGGGLVQPGGSLRLSCAASGFTFSNYGVTWVRQAPGKGLEWVSMIWADGSTHYASSVKGRFTISRDNSKNTLYLQMNSLRAEDTAVYYCAREWQHGPVAYWGQGTLVTVSS
VL: DIQMTQSPSSLSASVGDRVTISCRASQDIRNYLNWYQQKPGKAPKLLIFYTSKLHSGVPSRFSGSGSGTDYTLTISSLQPEDIATYYCQQGLTPPLTFGGGTKVEIKRGGSGGGGSGDIQMTQSPSSLSASVGDRVTITCRASQLVSSAVAWYQQKPGKAPKLLIYWASARHTGVPSRFSGSGSGTDFTLTISSLQPEDFATYYCQQHYKTPFTFGQGTKLEIKR
C-Terminal VD huTNFα Neutralization Assay IC50: 0.093 nM

B5: DVD2738 (bispecific antibody, IgG1)
VH: B4 VH with T168E, M183G, S194D, S195T, G198S
VL: B4 VL with R141K, A170T, R171L, K210R
C-Terminal VD huTNFα Neutralization Assay IC50: 0.452 nM
